Laboratory results from the DeepSol protein solubility set.

Experiment: soluble on expression in E. coli; label from the status in PepcDB or PDB records

Sequence	soluble on expression in E. coli
MGSDKIHHHHHHMSVMETTHRQYRQTLIFGLIRIVEELFPQEEIKIQYSILDGIYCELENSPLSPREVAQIEEKLHHWLESKPKIMSCAEEDGFFHTKVNHIFVKSLYPAMHPADTYYPFTLIFYHPGFILLFSNPEHPCELPNFVPPEKLAATFLESQRWVENLHLDKVGSINLNIRKGKTTELISLAEALHEKKISLIADRILEQRRNLRIILISGPSSSGKTTFAQRLSTQLQVNGIRPIALSLDNYFCDREHTPLDEYGQYDFEALEALDLPLLNQHVKALIHGEEIECPIFDFVAGRRQPEGIRMKLEPDEILVMEGIHALNPRLLPSLERSHLFKIYISALFQPNIDTHNRISTTDVRLIRRLVRDDKYRGINPEKTLNQWSSVRRGENNNIFPYQEEADVMFNSSLLYELNALKAYAEPLLISIPKDHPYYATASHLLRVLYHFEILDIAKVPFNSILREFIGGGIY	not soluble
MGSDKIHHHHHHMLYTENLQSLIDSGKGYNVEFKVRVPSKVRELTEEICAFANADGGYLLIGVDDNGQVVDTNLENDKRSAIQGSISEISPALHCELYSVNVGNKTVWVIDVPSGKDKPYIFSGSIYVREGANSQKLRTAEEMRSFFQECNKIFFDHIPCHWFNIYTDADEQMIKGFRTEAKLSPSTPDKQIFENLELFIENGTAKNGAAMFFGKQPERKFPHAVTRCVLFKGTNKVYIIDDKTFGGSLYQQYLQAMSWLESKLQVAYKIEGAGPREEIWEIPLTVFKEAIINALSHRDYYEQGASIMIEMFDDRVEISNPGGLLPVVAKDFGHKSMTRNPLIFGLFTRMHLVERVASGIPRMQEAMREANLPEPEFHTEGMFTVVFKRKNTNSANRDIVNGIINGIVNENEQTILNLLKAKPGLNASEVAESLSKSWRTTMRYLKSLNDKGLVEFRGAPKTGGYYLTRNI	not soluble
MSLRMKVFEIVKSSTENEIVRIHVELPRLKYLKDSNFEEKFNSEVEEKIKKFVNEVKGIAQEDHDKDVQHTPYEAYVSVDVRYEGKDFLSFVVYYYQFTGGAHGITFFETYNIDLKNSKVLKLYDIIKEEAEDTIKSNILKQIEQNNTDFFPDAPMNILKDDIFSREFTISKDGLIIMYPHYDLAPYASGMPEFVIPWNVIEKFLKYDILSLLKEGHHHHHH	soluble
MRTFTWRKGSLSKVNTCYVLAGGKSKRFGEDKLLYEIKGKKVIERVYETAKSVFKEVYIVAKDREKFSFLNAPVVLDEFEESASIIGLYTALKHAKEENVFVLSGDLPLMKKETVLYVLENFKEPVSVAKTEKLHTLVGVYSKKLLEKIEERIKKGDYRIWALLKDVGYNEVEIPEELRYTLLNMNTKEDLKRILAIENHY	soluble
MKLDPQTLAHITSATLGNYNRVADDFREGTRDHDVSQNIDALLRHIEGSAPWQILDFGCGPGRDLKTFTAMGHVAVGLDGSERFAEMARAETGCEVFQQNFLELDLPQGRFDGIFANAVLFHIPRQELPRVLRELYATLKPGGVLFSSNPRGQNQEGWQGERYGAYHDLETWRQLLTDAGFAELEHYYRPAGLPRDQQPWLASVWRRLEHHHHHH	not soluble
MFIQTEATPNPATLKFLPGKVVLESGTVEFLNASQAQASPLAERLFTIPGVTGVYFGFDFITVTKDDAEWQHLKPAILGSIMEHFMSGRPIMGTAIAAEVSDEEGEFFEEGDETIVATIKELLDTRVRPAVAQDGGDITFRGFRDGTVFLNMKGACSGCPSSTATLKHGVQNLLRHFVPEVREVEAV	not soluble
MVLYPLEAEVTMVTSFQDADPMGVIYHGNFFRYFEEARRVLMEKIQYGYRDMQDSGYMWPIIDTRVKYVKAIPFNHTIRITAQLTEWENRLRVDYVIYDAETNQRMCKAHTTQVAVSIEKQEMCFVSPAVFLDKVEQWHNHGLEHHHHHH	not soluble
MGHHHHHHSHDKAIKETSILEEYSINWTQKLGAGISGPVRVCVKKSTQERFALKILLDRPKARNEVRLHMMCATHPNIVQIIEVFANSVQFPHESSPRARLLIVMEMMEGGELFHRISQHRHFTEKQASQVTKQIALALRHCHLLNIAHRDLKPENLLFKDNSLDAPVKLCDFGFAKIDQGDLMTPQFTPYYVAPQVLEAQRRHQKEKSGIIPTSPTPYTYNKSCDLWSLGVIIYVMLCGYPPFYSKHHSRTIPKDMRRKIMTGSFEFPEEEWSQISEMAKDVVRKLLKVKPERRLTIEGVLDHPWLNSTEALDNVLPSAQLMMDKAVVAGIQQAHAEQLANMRIQDLKVSLKPLHSVNNPILRKRKLLGTKPKDSVYIHDHENGAEDSNVALEKLRDVIAQCILPQAGENEDEKLNEVMQEAWKYNRECKLLRDTLQSFSWNGRGFTDKVDRLKLAEIVKQVIEEQT	soluble
MEKNWYVVHTYSGYENKVKANLEKRVESMGMQDKIFRVVVPEEEETDIKNGKKKVVKKKVFPGYVLVEIVMTDDSWYVVRNTPGVTGFVGSAGSGSKPTPLLPGEAETILKRMGMDERKTDIDFELKETVKVIDGPFANFTGSIEEIDYDKSKVKVFVNMFGRETPVELEFTQIDKL	soluble
PAVKPVIGEVTPNSIVAEAGIESGMELKAVSGIKTPDWESVNMGLISHIGDDAMTLTLTSDSEVGAEVTKTLDLRDWKFDPETESAMHSLGFAPYTPEIYRVIKQVSEDGAAAKAGVLPEDEIIAIGGEPINDWKQVVDAVRSNPNTPIELTVLRRGIEQSLTLTPDSRELANKQVVGFAGIAPEVAEWPESYRFELQFGVFESIGKAVDKTGQVIGLTVSMLKKLIVGDVGLNNLSGPISIAKGAGATADYGL	not soluble
MSLETVLVPVDFTIEKEDLLGCIGEFKNAGLKKVILLHVVDIHKSQGLAPMFERNAKKRIEDYTGFAEELGLETEALVVVGDIKRTISETADRKNVDAIIMGATAKGFIKGRFLGRTTEHIARSSKKILLVEKYDALKEGKEFYKNACRATFSRVLVPLDFSKESMKAIEQLQEFGGIVKEVLLLHVIDNIKDMDLLDEQREEAKGKLGRIKEQLTGIKSQYLVVEGIPSDEIVKFANIEEATMIMLTSRGKGDLIDLILGSTAESVLRKTIKPVLIIPASKEFDGEEGHHHHHH	soluble
MDAAKVRSEFDEKMMRYALELADKAEALGEIPVGAVLVDDARNIIGEGWNLSIVQSDPTAHAEIIALRNGAKNIQNYRLLNSTLYVTLEPCTMCAGAILHSRIKRLVFGASDYKTGAIGSRFHFFDDYKMNHTLEVTSGVLAEECSQKLSTFFQKRREEKKIEKALLKSLSDKLEHHHHHH	not soluble
MSQQPGVLPENMKRYMGRDAQRMNILAGRIIAETVRSTLGPKGMDKMLVDDLGDVVVTNDGVTILREMSVEHPAAKMLIEVAKTQEKEVGDGTTTAVVVAGELLRKAEELLDQNVHPTIVVKGYQAAAQKAQELLKTIACEVGAQDKEILTKIAMTSITGKGAEKAKEKLAEIIVEAVSAVVDDEGKVDKDLIKIEKKSGASIDDTELIKGVLVDKERVSAQMPKKVTDAKIALLNCAIEIKETETDAEIRITDPAKLMEFIEQEEKMLKDMVAEIKASGANVLFCQKGIDDLAQHYLAKEGIVAARRVKKSDMEKLAKATGANVITNIKDLSAQDLGDAGLVEERKISGDSMIFVEECKHPKAVTMLIRGTTEHVIEEVARAVDDAVGVVGCTIEDGRIVSGGGSTEVELSMKLREYAEGISGREQLAVRAFADALEVIPRTLAENAGLDAIEILVKVRAAHASNGNKCAGLNVFTGAVEDMCENGVVEPLRVKTQAIQSAAESTEMLLRIDDVIAAEKLRGAPDMGDMGGMPGMGGMPGMM	soluble
MSEYLAAADYLPHSAPMVLVDEVIHVDDEHAHCRVAVSREGILAPFLNAQGHLPAWFGIEIIAQTIGVWSGWHGRQSLGLQEKPRPGMLLGGRGYHCQQAIFPAGSLLDVTVMLVMRDEKIGSFEGEIAIDGEKYASGRLNTYQPDDRELNILLEQGKPL	not soluble
MDLALFDLDETLISDDSTGLWIRWLVNEGLAPFELSEQEQTLMTQYYQGQLSMAGYMAATLSPLVGKHTAEVAGWVEHFIAHDILPRIYPQALEKLAWHRDRGDYIVIISASGEHLVTPIAKHFAADTALSIGVTVENDRYTGQTYGTLTYQKGKVDRLNQWLSASPQLNFKRSYGYSDSINDQPLLEYVDHAAVINPGAELIDLAVLHQWDIHHW	not soluble
EVKQFNTYANNLAKIKQKVILMGLLTEAKLEQYKGLSVDEVEAQTEFSFQDAIYSLSPYEKLNYVEAVARKSLHQAEAYLSNAFNRQNAIMYFRSYTGSKLILERPIKALEGVKATFDVDWCKSNYSCVLAAWKEQLTDRVLFSLPFKTTYSDDMAISIMSPVYFQGELVGEFSEQLYLSSLYNEGKAVDVQISNGNKQMVIYFSGYPWPSFAYTQSFVADNNNLIVYMYPFSKV	not soluble
MLYQPSLLKSRLTPAPPGFSFQPQPLLNSDMDPVRNLESLGNYTVYQDSSQCFWQHQNFTSNREHNPALRKTKICDHWRRSGSCSYGDACWYAHGEDDLRKVVRIDRSNEEENERPATAEIQKSPTKRASTNVKGLTVNIPSNTAFKEQNSSMPLSPAQERWISMSIGAVPPPTSSAAEKDAISSLSKNGVEQEQEKKHEICSRDDDIDDYGFLSPNPFPYPQQSMFSAGFPSHGHHQRSSNRATQGVPSQQFGGPVNIPGQDPNRLGSGAYHIPPQHQRSRSNVRTSREVGGPPPQFQQAIWNVAGEIYQRQKDIEIGGQRVGPNDRQPTQQKNSEMDRLLSKLKMKDLNYLRFMIERGYINERDVSRQTSSDQMSNGHHFNAPMTPPYHPRLAGNEPNTSDCHYHGTGNRLSNFMPGRHRPPHQHPIHHHHQSQHQLHQHQQYLHHAAQQYRYSHQQGPQHPFAALLSPPEISESLLPPDDSFSIWLEPKPKKQSGAMTRTRGAATINESSSAASLLTKMDALRSDKYPITDEEMMMANDFVRQGDRDDKLSSSESSSPVVMSLMELLSNENLLDQVATEKPKCSMFDFDTLKIAETLKEPLQSSECSTTTSSKMTCSPMFFFVDEKTPNYDGSGSKSLFTPSSSAGQTPSFLEPCDFFAATGSCPFGDACHQSHSI	not soluble
MGSDKIHHHHHHMHNEIVTGNVLPFNIFEKADSKLLAWIRDVSVVREITTSCRLIEEGSTPDGLFVVESGAITVCTKQADGGSLSLASLKVGNLVGEMSWLEERPAVASIDAGPGSRLLQIPREALESINQSEAFICHLLYRLIAEKLALQVQGQNIWVHRIAGTDQEPLRKVLVLFAELEEKDVAWIARSGKFKRLVAGDVLLQEGDNVPGLYLLLAGEARISITENGSWQSVGSSRRGELLGELTMLNPQAAGATANVDTVTGLELLVLDKEELSMTLNADPRLAKRFYKGIARMLSQRSRDQLLSRGFAEASRIAEELIDNEQLGLDQLSAISSAGLRFDWLCRQFQDKEG	not soluble
MSLAPNPYLTGRTLNIAHQGGEALWPSNTLTAYRGAVALGVDLLEMDLHATRDGALVLSHDATLDRLTDTQGRIADLTLEQVLRADAGYTLTPAGGSGFPFRGQGVQVAQLKDVLREFPNTPLIIELKQASPSIAAPFCAELRRAGATGRVIAASFSDAALNEFRRLCPEVMTSMTERELRPLVLLSKVGLSALAPTPGQVAQVPVRSGGIEIVTPAFVRALHARGVAVQVWTIDDEAEMRRLVQMGVDGVITNRPDLLKKVLAEREGHHHHHH	not soluble
MSLEEWEKHMQNFIPDMLVTFPLAPRSDEYFYEHIEANDGAVHLRGGFFVGGDEGSASVDFSITDPDGDIIYKKSKSEGLFYFTAKKKGTYSFIVSNHQWLESRMVTFAIGRGNETALMPKHVQTAGEMADTLQNQLRDIQLLLLQQEKENGSSSSVSEEKADATASAASAGGLTDREMKQVIYGACRKVDARNATEIPSCRGIPLTEVHRHWVIEEKERIARMGGTIENGRVNGSLEVTRSFGDISLKRYGVSCVPTVKKFTLDPALDEFVLMGCDGFWNCWTASEALNLASEAWEKEIRSSKVHSRPVDPQNVSKQLVEHVLIDKKSQDNITVLLLKISRKEGHHHHHH	soluble
